Paper PMC2871490 (The Journal of Biological Chemistry, 2010)

T1: His6-Fli-I G1–6 (human, UniProt Q13045 461-1269)
T1 sequence: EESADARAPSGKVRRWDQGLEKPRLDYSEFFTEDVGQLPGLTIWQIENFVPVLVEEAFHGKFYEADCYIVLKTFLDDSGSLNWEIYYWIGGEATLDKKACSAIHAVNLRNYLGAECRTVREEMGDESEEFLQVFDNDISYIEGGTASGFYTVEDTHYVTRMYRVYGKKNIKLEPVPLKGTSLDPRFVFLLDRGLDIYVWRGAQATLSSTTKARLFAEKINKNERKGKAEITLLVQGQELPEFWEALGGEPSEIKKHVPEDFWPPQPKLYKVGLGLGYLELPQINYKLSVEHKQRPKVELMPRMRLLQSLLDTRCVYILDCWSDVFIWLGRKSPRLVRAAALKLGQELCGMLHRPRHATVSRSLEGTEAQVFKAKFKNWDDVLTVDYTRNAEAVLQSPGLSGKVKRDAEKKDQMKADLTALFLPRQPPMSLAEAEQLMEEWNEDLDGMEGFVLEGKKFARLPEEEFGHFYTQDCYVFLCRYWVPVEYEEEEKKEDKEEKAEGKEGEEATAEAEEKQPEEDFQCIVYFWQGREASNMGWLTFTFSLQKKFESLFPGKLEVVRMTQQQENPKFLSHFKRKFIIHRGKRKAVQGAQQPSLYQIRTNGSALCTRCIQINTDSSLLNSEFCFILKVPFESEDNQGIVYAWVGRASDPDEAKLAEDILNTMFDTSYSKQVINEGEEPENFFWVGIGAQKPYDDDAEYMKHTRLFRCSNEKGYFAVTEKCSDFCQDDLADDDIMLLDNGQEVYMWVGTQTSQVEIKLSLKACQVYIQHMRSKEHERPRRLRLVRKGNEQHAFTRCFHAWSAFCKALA

T2: His6-Daam1 NT (human, UniProt Q9Y4D1 41-477)
T2 sequence: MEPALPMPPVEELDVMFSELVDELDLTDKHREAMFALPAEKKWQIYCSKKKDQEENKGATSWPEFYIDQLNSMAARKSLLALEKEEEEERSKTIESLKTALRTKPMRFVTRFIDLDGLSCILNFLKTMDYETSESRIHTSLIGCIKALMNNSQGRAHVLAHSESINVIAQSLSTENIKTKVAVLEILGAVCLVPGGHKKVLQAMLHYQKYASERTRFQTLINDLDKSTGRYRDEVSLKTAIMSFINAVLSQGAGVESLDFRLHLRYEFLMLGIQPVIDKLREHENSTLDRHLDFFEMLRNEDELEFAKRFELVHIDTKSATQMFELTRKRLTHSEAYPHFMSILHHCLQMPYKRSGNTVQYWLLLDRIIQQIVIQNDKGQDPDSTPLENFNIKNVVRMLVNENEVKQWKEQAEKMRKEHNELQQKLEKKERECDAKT


What was measured:
Assay in all cases: pull-down
GST-Daam1 CT WT = GST-Daam1 CT WT (human, UniProt Q9Y4D1 490-1078)
GST-Daam1 CT L1040A = GST-Daam1 CT L1040A (human, UniProt Q9Y4D1 490-1078, L1040A)
His6-Daam1 CT = His6-Daam1 CT (human, UniProt Q9Y4D1 490-1078)
His6-Fli-I G1–6 = target: T1, His6-Fli-I G1–6
His6-Daam1 NT = target: T2, His6-Daam1 NT

| binding result (GST-Daam1 CT WT) | binding result (GST-Daam1 CT L1040A) | binding result (His6-Daam1 CT) | binding result (His6-Fli-I G1–6) | binding result (His6-Daam1 NT) | Binder |
| --- | --- | --- | --- | --- | --- |
| binds | binds | binds |  |  | His6-Fli-I G4–6 (domain or fragment) KKDQMKADLTALFLPRQPPMSLAEAEQLMEEWNEDLDGMEGFVLEGKKFARLPEEEFGHFYTQDCYVFLCRYWVPVEYEEEEKKEDKEEKAEGKEGEEATAEAEEKQPEEDFQCIVYFWQGREASNMGWLTFTFSLQKKFESLFPGKLEVVRMTQQQENPKFLSHFKRKFIIHRGKRKAVQGAQQPSLYQIRTNGSALCTRCIQINTDSSLLNSEFCFILKVPFESEDNQGIVYAWVGRASDPDEAKLAEDILNTMFDTSYSKQVINEGEEPENFFWVGIGAQKPYDDDAEYMKHTRLFRCSNEKGYFAVTEKCSDFCQDDLADDDIMLLDNGQEVYMWVGTQTSQVEIKLSLKACQVYIQHMRSKEHERPRRLRLVRKGNEQHAFTRCFHAWSAFCKALA |
|  |  | binds |  |  | GST-Fli-I G4–6 (domain or fragment) KKDQMKADLTALFLPRQPPMSLAEAEQLMEEWNEDLDGMEGFVLEGKKFARLPEEEFGHFYTQDCYVFLCRYWVPVEYEEEEKKEDKEEKAEGKEGEEATAEAEEKQPEEDFQCIVYFWQGREASNMGWLTFTFSLQKKFESLFPGKLEVVRMTQQQENPKFLSHFKRKFIIHRGKRKAVQGAQQPSLYQIRTNGSALCTRCIQINTDSSLLNSEFCFILKVPFESEDNQGIVYAWVGRASDPDEAKLAEDILNTMFDTSYSKQVINEGEEPENFFWVGIGAQKPYDDDAEYMKHTRLFRCSNEKGYFAVTEKCSDFCQDDLADDDIMLLDNGQEVYMWVGTQTSQVEIKLSLKACQVYIQHMRSKEHERPRRLRLVRKGNEQHAFTRCFHAWSAFCKALA |
|  |  |  | binds | binds | GST-Daam1 DAD (domain or fragment) NMRKKKEEEERRARMEAQLKEQRERERKMRKAKENSEESGEFDDLVSALRSGEVFDKDLSKLKRNRKRITNQMTDSSRERPITKLNF |
|  |  | binds |  |  | GST-Daam1 NT (domain or fragment) MEPALPMPPVEELDVMFSELVDELDLTDKHREAMFALPAEKKWQIYCSKKKDQEENKGATSWPEFYIDQLNSMAARKSLLALEKEEEEERSKTIESLKTALRTKPMRFVTRFIDLDGLSCILNFLKTMDYETSESRIHTSLIGCIKALMNNSQGRAHVLAHSESINVIAQSLSTENIKTKVAVLEILGAVCLVPGGHKKVLQAMLHYQKYASERTRFQTLINDLDKSTGRYRDEVSLKTAIMSFINAVLSQGAGVESLDFRLHLRYEFLMLGIQPVIDKLREHENSTLDRHLDFFEMLRNEDELEFAKRFELVHIDTKSATQMFELTRKRLTHSEAYPHFMSILHHCLQMPYKRSGNTVQYWLLLDRIIQQIVIQNDKGQDPDSTPLENFNIKNVVRMLVNENEVKQWKEQAEKMRKEHNELQQKLEKKERECDAKT |
